IntAct's records for PubMed 29039417

B1: Protein PTHB1 (Homo sapiens), Q3SYG4 (parent)
chain: MSLFKARDWWSTILGDKEEFDQGCLCLANVDNSGNGQDKIIVGSFMGYLRIFSPHPAKTGDGAQAEDLLLEVDLRDPVLQVEVGKFVSGTEMLHLAVLHSRKLCVYSVSGTLGNVEHGNQCQMKLMYEHNLQRTACNMTYGSFGGVKGRDLICIQSMDGMLMVFEQESYAFGRFLPGFLLPGPLAYSSRTDSFLTVSSCQQVESYKYQVLAFATDADKRQETEQQKLGSGKRLVVDWTLNIGEQALDICIVSFNQSASSVFVLGERNFFCLKDNGQIRFMKKLDWSPSCFLPYCSVSEGTINTLIGNHNNMLHIYQDVTLKWATQLPHIPVAVRVGCLHDLKGVIVTLSDDGHLQCSYLGTDPSLFQAPNVQSRELNYDELDVEMKELQKIIKDVNKSQGVWPMTEREDDLNVSVVVSPNFDSVSQATDVEVGTDLVPSVTVKVTLQNRVILQKAKLSVYVQPPLELTCDQFTFEFMTPDLTRTVSFSVYLKRSYTPSELEGNAVVSYSRPTDRNPDGIPRVIQCKFRLPLKLICLPGQPSKTASHKITIDTNKSPVSLLSLFPGFASQSDDDQVNVMGFHFLGGARITVLASKTSQRYRIQSEQFEDLWLITNELILRLQEYFEKQGVKDFACSFSGSIPLQEYFELIDHHFELRINGEKLEELLSERAVQFRAIQRRLLARFKDKTPAPLQHLDTLLDGTYKQVIALADAVEENQGNLFQSFTRLKSATHLVILLIALWQKLSADQVAILEAAFLPLQEDTQELGWEETVDAAISHLLKTCLSKSSKEQALNLNSQLNIPKDTSQLKKHITLLCDRLSKGGRLCLSTDAAAPQTMVMPGGCTTIPESDLEERSVEQDSTELFTNHRHLTAETPRPEVSPLQGVSE
partner: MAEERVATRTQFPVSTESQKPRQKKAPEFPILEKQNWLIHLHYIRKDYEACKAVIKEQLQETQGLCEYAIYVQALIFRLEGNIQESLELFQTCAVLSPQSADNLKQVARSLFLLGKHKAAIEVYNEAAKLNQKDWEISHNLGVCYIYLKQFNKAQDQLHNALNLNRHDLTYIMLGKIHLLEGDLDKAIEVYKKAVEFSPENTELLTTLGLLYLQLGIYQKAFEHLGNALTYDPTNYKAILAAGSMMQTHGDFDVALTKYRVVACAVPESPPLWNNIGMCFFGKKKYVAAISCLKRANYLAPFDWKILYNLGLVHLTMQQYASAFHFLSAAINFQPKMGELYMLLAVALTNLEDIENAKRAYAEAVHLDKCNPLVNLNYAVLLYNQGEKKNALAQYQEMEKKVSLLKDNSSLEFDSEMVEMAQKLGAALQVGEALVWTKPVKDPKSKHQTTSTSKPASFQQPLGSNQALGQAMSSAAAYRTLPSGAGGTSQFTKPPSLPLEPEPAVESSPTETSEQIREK

Variants of: B1
Conditions: with bbs4_human BBS4, Q96RK4

| Variant | effect of a mutation on the interaction |
| --- | --- |
| D571A | with no effect |
| V440K | disrupting interaction strength |
| F476K | with no effect |
| L819A | with no effect |
| L819E | with no effect |
| L870A | with no effect |
| V671K | with no effect |
| R669A | with no effect |
| Q677E | with no effect |
| P497A | with no effect |
| S785E | with no effect |
| S785K | disrupting interaction strength |
| V713E | with no effect |
| T763K | with no effect |
| L699A | with no effect |
| N576E | with no effect |
| Q471K | with no effect |
| T549E | with no effect |
| G718K | with no effect |
| V879K | with no effect |
| L759E | with no effect |
| V772K | disrupting interaction strength |
| S541K | with no effect |

| Variant | effect of a mutation on the interaction |
| --- | --- |
| R493K | with no effect |
| I534E | with no effect |
| S723P | disrupting interaction strength |
| F472K | with no effect |
| A833S | disrupting interaction strength |
| T874A | with no effect |
| T468K | with no effect |
| S486E | with no effect |
| S486K | with no effect |
| E715K | disrupting interaction strength |
| T496A | with no effect |
| L620A | with no effect |
| E668K | with no effect |
| K626A | with no effect |
| M578K | with no effect |
| K554S | disrupting interaction strength |
| L611A | with no effect |
| Y490K | with no effect |
| T731A | with no effect |
| T731E | disrupting interaction strength |
| L536E | with no effect |
| L536K | with no effect |
| D696E | with no effect |

| Variant | effect of a mutation on the interaction |
| --- | --- |
| T589E | with no effect |
| S860A | with no effect |
| G579A | with no effect |
| R854A | with no effect |
| L662A | with no effect |
| L662K | with no effect |
| V415E | with no effect |
| N658E | with no effect |
| N658K | with no effect |
| C826A | with no effect |
| C826E | with no effect |
| V838A | disrupting interaction strength |
| I550E | with no effect |
| A633E | with no effect |
| I738A | disrupting interaction strength |
| L436E | with no effect |
| R600K | with no effect |
| T871A | with no effect |
| P847K | with no effect |
| I676A | with no effect |
| I676K | with no effect |
| H811K | with no effect |
| H811E | with no effect |

| Variant | effect of a mutation on the interaction |
| --- | --- |
| D429A | with no effect |
| Q760E | with no effect |
| Y599E | with no effect |
| R514K | with no effect |
| E887A | with no effect |
| E887K | with no effect |
| E406A | with no effect |
| T441A | with no effect |
| P540E | with no effect |
| C469K | with no effect |
| C469A | with no effect |
| Q462A | with no effect |
| Q462T | disrupting interaction strength |
| E765A | with no effect |
| S886E | with no effect |
| L727K | with no effect |
| F606A | with no effect |
| L744K | with no effect |
| L680E | with no effect |
| Y460K | with no effect |
